Results taken from patent US20250326863A1.

Molecular target: human IgG
Experiment: bio-layer interferometry

Kd: 0.1 µM
B1: recombinant monoclonal low affinity rheumatoid factor RF^low (human IgM; RC1 of Youngblood et al. 1994) (antibody, V domains shown)
VH: QVQLVQSGGGVVQPGRSLRLSCAASGFTFSSYAMHWVRQAPGKGLEWVAVISYDGSNKYYAESVKGRFTISRDNSKNTLYLRMNSLRTEETAVYYCARDGDVGSYGPGTYYPIDYWGQGTLVSVSP
VL: EIVLTQSPATLSLSPGERATLSCRASQSVSSYLAWYQEKPGTAPRLLIYDASNRATGIPARFSGSGSGTDFTLTISSLEPEDFAVYYCQQRRNWPLTFGPGTKVDIK
